Test results reported in patent US20170015742A1 (published 2017).
Where a chain is given by its changes, count along the chain named. In names and notes the source's numbering stands. Values belong to the binder of their own block, whether it stands above or below them.

Columns and labels:
[1] = molecular target: T1, recombinant human VEGF165 (human, UniProt P15692 207-395); experiment: cell-based or functional assay
[2] = molecular target: T2, recombinant human PDGF-BB (human, UniProt P01127 82-190); experiment: cell-based or functional assay
[3] = molecular target: T2, recombinant human PDGF-BB; experiment: competition ELISA: blocks hPDGF-BB-biotin binding to coated hPDGF-Rβ-Fc
Procedure: (§1) Plates were then washed four times with wash buffer (TBS, 0.05% Tween-20) and blocked with Superblock blocking buffer (Thermo Scientific, cat#37535). During the blocking step, supernatants, antibodies, benchmark compounds or DVD-Ig were diluted in assay diluent (10% Superblock containing 0.05% surfactamps) and an eight point titration of each sample molecule was performed. […] Following incubation, plates were washed four times with wash buffer. Detection reagent Streptavidin-polyHRP-40 (Fitzgerald, cat#65r-s104phrp) was diluted in assay diluent and added to plates (50 μL) for 45 minutes at 25° C. with shaking. Plates were washed four times with wash buffer and developed with the addition of Enhanced K-blue TMB substrate (Neogen, cat#308177). The reaction was stopped with 2N sulfuric acid (VWR, cat# BDH3500-1) and the absorbance was read at 450 nm-570 nm. […] Data was analyzed using Softmax Pro 4.8 software and IC₅₀ values calculated using a sigmoidal dose response (variable slope) fit in GraphPad Prism 5.

[4] = molecular target: T1, recombinant human VEGF165; experiment: competition ELISA: blocks biotinylated hVEGF165 binding to coated hVEGF-R2-Fc
Procedure: To identify molecules that could block the binding of hVEGF₁₆₅ to the hVEGF-R2 (KDR/Flk-1) receptor, a competition ELISA was performed. […] Plates were then washed four times with wash buffer (TBS, 0.05% Tween-20) and blocked with Superblock blocking buffer (Thermo Scientific, cat#37535). […] The pre-incubated sample/hVEGF₁₆₅ complex was added to the coated plate at 50 μL in duplicate and incubated for 30 minutes at 25° C. with shaking. Following incubation, plates were washed four times with wash buffer. Streptavidin-polyHRP-40 (Fitzgerald cal#65r-s104phrp) was diluted in assay diluent (10% Superblock containing 0.05% surfactamps) and added to plates (50 μL) for 45 minutes at 25° C. with shaking. Plates were washed four times with wash buffer and developed with the addition of Enhanced K-blue TMB substrate (Neogen cat#308177). The reaction was stopped with 2N sulfuric acid (VWR, cat# BDH3500-1) and the absorbance was read at 450 nm-570 nm. A decrease in observed optical density indicates the test molecule is blocking the hVEGF₁₆₅ binding to the hVEGF-R2-Fc. Data was analyzed using Softmax Pro 4.8 software and IC₅₀ values calculated using a sigmoidal dose response (variable slope) fit in GraphPad Prism 5.

[5] = molecular target: T3, recombinant human VEGF-R2-Fc (human, UniProt P35968 20-764); experiment: competition ELISA: antibody added to coated hVEGF-R2-Fc, then biotinylated hVEGF165 (competitor)
T3 construct: Bought Fc fusion (R&D Systems cat#357-KD); also called hVEGFR2-Fc; VEGF-R2 (KDR/Flk-1); not shown: Fc part of the bought fusion protein
Procedure: To identify molecules which could block the binding of VEGF-R2 (KDR/Flk-1) to hVEGF₁₆₅, a competition ELISA was performed. […] Plates were then washed four times with wash buffer (TBS, 0.05% Tween-20) and blocked with Superblock blocking buffer (Thermo Scientific, cat#37535). […] The samples were added to wells and incubated for 30 minutes at 25° C. with shaking. […] Following incubation, plates were washed four times with wash buffer. Streptavidin-polyHRP-40 (Fitzgerald cat#65r-s104phrp) was diluted in assay diluent (10% Superblock containing 0.05% surfactamps) and added to plates (50 μL) for 45 minutes at 25° C. with shaking. Plates were washed four times with wash buffer and developed with the addition of Enhanced K-blue TMB substrate (Neogen cat#308177). The reaction was stopped with 2N sulfuric acid (VWR, cat# BDH3500-1) and the absorbance was read at 450 nm-570 nm. A decrease in observed optical density indicates the test molecule is blocking the human VEGF-R2-Fc binding to hVEGF₁₆₅. Data was analyzed using Softmax Pro 4.8 software and IC₅₀ values calculated using a sigmoidal dose response (variable slope) fit in GraphPad Prism 5.
Humanized anti-VEGFR2 antibodies were tested for potency against hVEGFR2 in functional assay formats. The antibodies were characterized for the ability to block VEGFR2 binding to hVEGF₁₆₅ in a competition ELISA format (Example 1.22).

[6] = molecular target: T4, recombinant human PDGF-BB (human, UniProt P01127 82-190, biotin-labelled in the binding and competition ELISAs (sites not given)); experiment: cell-based or functional assay
[7] = molecular target: T4, recombinant human PDGF-BB; experiment: receptor competition ELISA: antibody pre-incubated with biotin-hPDGF-BB, binding to coated hPDGF-Rβ-Fc
Procedure: as §1

T2 sequence (P01127 82-190 limits assumed): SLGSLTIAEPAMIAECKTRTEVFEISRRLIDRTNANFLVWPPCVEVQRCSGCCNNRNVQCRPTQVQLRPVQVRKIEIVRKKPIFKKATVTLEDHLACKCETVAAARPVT
T1 sequence (P15692 other isoform, or with tags, fused parts or gaps limits assumed): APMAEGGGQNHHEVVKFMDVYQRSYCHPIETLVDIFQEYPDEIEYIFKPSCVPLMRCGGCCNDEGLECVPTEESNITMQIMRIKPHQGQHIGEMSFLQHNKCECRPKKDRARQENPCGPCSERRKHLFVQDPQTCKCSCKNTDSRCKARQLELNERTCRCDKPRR
T3 sequence (P35968 20-764 limits assumed): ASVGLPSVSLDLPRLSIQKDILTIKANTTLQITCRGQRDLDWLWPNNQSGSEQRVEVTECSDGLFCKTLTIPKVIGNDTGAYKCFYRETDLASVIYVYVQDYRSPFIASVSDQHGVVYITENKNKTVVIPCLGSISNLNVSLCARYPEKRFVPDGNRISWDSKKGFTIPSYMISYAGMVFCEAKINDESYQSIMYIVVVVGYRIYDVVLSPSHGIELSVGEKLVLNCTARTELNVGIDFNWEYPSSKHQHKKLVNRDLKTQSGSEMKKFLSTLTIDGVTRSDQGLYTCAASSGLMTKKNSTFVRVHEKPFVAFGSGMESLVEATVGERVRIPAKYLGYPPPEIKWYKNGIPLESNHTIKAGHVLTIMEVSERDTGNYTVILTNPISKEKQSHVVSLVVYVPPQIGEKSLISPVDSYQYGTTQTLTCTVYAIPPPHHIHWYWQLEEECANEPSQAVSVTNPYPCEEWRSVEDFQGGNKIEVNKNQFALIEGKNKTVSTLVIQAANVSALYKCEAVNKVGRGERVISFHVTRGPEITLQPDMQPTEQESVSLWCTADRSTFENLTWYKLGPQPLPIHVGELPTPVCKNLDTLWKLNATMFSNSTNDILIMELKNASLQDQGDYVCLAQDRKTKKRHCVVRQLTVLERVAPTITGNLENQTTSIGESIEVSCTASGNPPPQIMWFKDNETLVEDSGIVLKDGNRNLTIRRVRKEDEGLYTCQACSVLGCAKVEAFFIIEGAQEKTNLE
T4 sequence (P01127 82-190 limits assumed): as the sequence (P01127 82-190 limits assumed) above

Potency IC50 (nM) HMVEC-d hVEGF165 [1]: 0.36 nM
Potency IC50 (nM) NIH-3T3 hPDGF-BB [2]: 0.427 nM
IC50 [3]: > 5 nM
IC50 [4]: 0.133 nM
B1: hVEGF 4G8.3-SL-hPDGF 9E8.4 [hu IgG1/k] mut(234, 235) H435A (bispecific antibody)
heavy: EVQLVQSGSELKKPGASVKVSCKASGYTFTNYGMYWVRQAPGQGLEWMGWINTETGKPTYADDFKGRFVFSLDTSVSTAYLQISSLKAEDTAVYYCARTNYYYRSYIFYFDYWGQGTMVTVSSASTKGPEVTLRESGPALVKPTQTLTLTCTFSGFSLSTYGMGVGWIRQPPGKALEWLANIWWDDDKYYNPSLKNRLTISKDTSKNQVVLTMTNMDPVDTATYYCARIESIGTTYSFDYWGQGTMVTVSSASTKGPSVFPLAPSSKSTSGGTAALGCLVKDYFPEPVTVSWNSGALTSGVHTFPAVLQSSGLYSLSSVVTVPSSSLGTQTYICNVNHKPSNTKVDKKVEPKSCDKTHTCPPCPAPEAAGGPSVFLFPPKPKDTLMISRTPEVTCVVVDVSHEDPEVKFNWYVDGVEVHNAKTKPREEQYNSTYRVVSVLTVLHQDWLNGKEYKCKVSNKALPAPIEKTISKAKGQPREPQVYTLPPSREEMTKNQVSLTCLVKGFYPSDIAVEWESNGQPENNYKTTPPVLDSDGSFFLYSKLTVDKSRWQQGNVFSCSVMHEALHNAYTQKSLSLSPGK
light: DTVLTQSPATLSLSPGERATLSCRASESVSTHMHWYQQKPGQAPRLLIYGASNLESGVPARFSGSGSGTDFTLTISSLEPEDFAVYFCQQSWNDPFTFGQGTKLEIKRTVAAPSVFIFPPEFVLTQSPGTLSLSPGERATLSCERSSGDIGDSYVSWYQQKPGQAPRLVIYADDQRPSGIPDRFSGSGSGTDFTLTISRLEPEDFAVYYCQSYDINIDIVFGGGTKVEIKGTVAAPSVFIFPPSDEQLKSGTASVVCLLNNFYPREAKVQWKVDNALQSGNSQESVTEQDSKDSTYSLSSTLTLSKADYEKHKVYACEVTHQGLSSPVTKSFNRGEC
notes: DVD-Ig, outer hBDB-4G8.3, inner hBDI-9E8.4, HG-short/LK-long; also called 4G8.3-SL-9E8.4

IC50 [5]: 0.34 nM
B2: hBCU-6B1.2 (antibody, V domains shown)
VH: EVQLVQSGAEVKKPGASVKVSCKASGYTFTNYGMYWVKQAPGQGLEFMGWINTETGQPTYADDFKGRFTFTLDTSTSTAYMELRSLRSDDTAVYFCARLGNNYGIWFAYWGQGTLVTVSS
VL: DIQMTQSPSSLSASVGDRVTIECRASDDLYSTLAWYQQKPGKSPKLLIFDANRLAAGVPSRFSGSGSGTDYSLTISSLQPEDVATYFCQQYNKFPWTFGGGTKVEIK
notes: Humanized anti-human VEGFR II IgG from pHybE expression vectors

IC50 [5]: 0.335 nM
B3: hBCU-6B1.4 (antibody, V domains shown)
VH: B2 VH with K38R, F95Y
VL: B2 VL with E22T, S72T
notes: as for B2

IC50 [5]: 0.319 nM
B4: hBCU-6B1.3 (antibody, V domains shown)
VH: B2 VH with K38R, F95Y
VL: B2 VL
notes: as for B2

IC50 [5]: 0.474 nM
B5: hBCU-6B1.1 (antibody, V domains shown)
VH: EVQLVQSGSELKKPGASVKVSCKASGYTFTNYGMYWVKQAPGQGLEFMGWINTETGQPTYADDFKGRFVFSLDTSVSTAYLQISSLKAEDTAVYFCARLGNNYGIWFAYWGQGTLVTVSS
VL: B2 VL
notes: as for B2

huPDGF-BB Neutralization Potency (nM) in NIH-3T3 Cells [6]: > 5 nM
IC50 [7]: 0.417 nM
B6: chBDI-1E1 (antibody, human IgG1, V domains shown)
VH: EVKLQQSGDELVRPGASVKMSCKASGYTFTDYVMHWVKQSPGQGLEWIGTIIPLIDTTSYNQKFKGKATLTADKSSNTAYMELSRLTSEDSAVYYCARTSPYYYSSYDVMDAWGQGASVTVSS
VL: NIQLTQSPSLLSASVGDRVTLSCKGSQNINNYLAWYQQKLGEAPKLLIYKTNNLQTGIPSRFSGCGSGTDYTLTISSLHSEDLATYYCYQYDNGYTFGAGTKLELK
notes: also called chimeric BDI-1E1-D5

Potency IC50 (nM) HMVEC-d hVEGF165 [1]: 0.145 nM
Potency IC50 (nM) NIH-3T3 hPDGF-BB [2]: 0.034 nM
IC50 [3]: 0.09 nM
IC50 [4]: 0.045 nM
B7: 9E10.1_GS_CL-33675 (bispecific antibody, human IgG1, kappa, L234A L235A)
heavy: EIQLVQSGSELKKPGASVKVSCKASGYTFTNYGMYWVKQAPGQGLEYMGWIDTETGRPTYADDFKGRFVFSLDTSVSTAYLQISSLKAEDTAVYFCARWSGDTTGIRGPWFAYWGQGTLVTVSSGGGGSGGGGSEVTLRESGPALVKPTQTLTLTCTFSGFSLSTYGMGVGWIRQPPGKALEWLANIWWDDDKYYNPSLKNRLTISKDTSKNQVVLTMTNMDPVDTATYYCARIESSGPKYSFDYWGQGTMVTVSSASTKGPSVFPLAPSSKSTSGGTAALGCLVKDYFPEPVTVSWNSGALTSGVHTFPAVLQSSGLYSLSSVVTVPSSSLGTQTYICNVNHKPSNTKVDKKVEPKSCDKTHTCPPCPAPEAAGGPSVFLFPPKPKDTLMISRTPEVTCVVVDVSHEDPEVKFNWYVDGVEVHNAKTKPREEQYNSTYRVVSVLTVLHQDWLNGKEYKCKVSNKALPAPIEKTISKAKGQPREPQVYTLPPSREEMTKNQVSLTCLVKGFYPSDIAVEWESNGQPENNYKTTPPVLDSDGSFFLYSKLTVDKSRWQQGNVFSCSVMHEALHNAYTQKSLSLSPGK
light: DIRMTQSPSSLSASVGDRVTIECLASEDIYSDLAWYQQKPGKSPKLLIYNANGLQNGVPSRFSGSGSGTDYSLTISSLQPEDVATYFCQQYNYFPGTFGQGTKLEIKGGSGGGGSGGEIVLTQSPGTLSLSPGERATLSCRASSGSIWYSFVSWYQQKPGQAPRLLIYADDQRASGIPDRFSGSGSGTDFTLTISRLEPEDFAVYYCQSYGINIDVVFGGGTKVEIKRTVAAPSVFIFPPSDEQLKSGTASVVCLLNNFYPREAKVQWKVDNALQSGNSQESVTEQDSKDSTYSLSSTLTLSKADYEKHKVYACEVTHQGLSSPVTKSFNRGEC
notes: DVD-Ig, outer hBEW-9E10.1, inner CL-33675, GS-H10/GS-L10(dR), hu IgG1/k LALA H435A; also called PR-1610561; 9E10.1-GS-33675

Potency IC50 (nM) HMVEC-d hVEGF165 [1]: 0.341 nM
Potency IC50 (nM) NIH-3T3 hPDGF-BB [2]: 0.63 nM
IC50 [3]: > 5 nM
IC50 [4]: 0.137 nM
B8: hVEGF 4G8.3-GS-hPDGF 9E8.4 [hu IgG1/k] mut(234, 235) H435A (bispecific antibody)
heavy: EVQLVQSGSELKKPGASVKVSCKASGYTFTNYGMYWVRQAPGQGLEWMGWINTETGKPTYADDFKGRFVFSLDTSVSTAYLQISSLKAEDTAVYYCARTNYYYRSYIFYFDYWGQGTMVTVSSGGGGSGGGGSEVTLRESGPALVKPTQTLTLTCTFSGFSLSTYGMGVGWIRQPPGKALEWLANIWWDDDKYYNPSLKNRLTISKDTSKNQVVLTMTNMDPVDTATYYCARIESIGTTYSFDYWGQGTMVTVSSASTKGPSVFPLAPSSKSTSGGTAALGCLVKDYFPEPVTVSWNSGALTSGVHTFPAVLQSSGLYSLSSVVTVPSSSLGTQTYICNVNHKPSNTKVDKKVEPKSCDKTHTCPPCPAPEAAGGPSVFLFPPKPKDTLMISRTPEVTCVVVDVSHEDPEVKFNWYVDGVEVHNAKTKPREEQYNSTYRVVSVLTVLHQDWLNGKEYKCKVSNKALPAPIEKTISKAKGQPREPQVYTLPPSREEMTKNQVSLTCLVKGFYPSDIAVEWESNGQPENNYKTTPPVLDSDGSFFLYSKLTVDKSRWQQGNVFSCSVMHEALHNAYTQKSLSLSPGK
light: DTVLTQSPATLSLSPGERATLSCRASESVSTHMHWYQQKPGQAPRLLIYGASNLESGVPARFSGSGSGTDFTLTISSLEPEDFAVYFCQQSWNDPFTFGQGTKLEIKRGGSGGGGSGEFVLTQSPGTLSLSPGERATLSCERSSGDIGDSYVSWYQQKPGQAPRLVIYADDQRPSGIPDRFSGSGSGTDFTLTISRLEPEDFAVYYCQSYDINIDIVFGGGTKVEIKGTVAAPSVFIFPPSDEQLKSGTASVVCLLNNFYPREAKVQWKVDNALQSGNSQESVTEQDSKDSTYSLSSTLTLSKADYEKHKVYACEVTHQGLSSPVTKSFNRGEC
notes: DVD-Ig, outer anti-VEGF hBDB-4G8.3, inner anti-PDGF hBDI-9E8.4; also called 4G8.3-GS-9E8.4
